Measured values as given in publication doi:10.1101/2024.07.03.601496.

What was measured:
[1] = target: Exd (for EMSA) (Drosophila) (UniProt P40427); experiment: native gel or EMSA
[2] = target: Hth (for EMSA) (Drosophila) (UniProt O46339); experiment: native gel or EMSA
UniProt O46339, sequence (O46339 whole entry): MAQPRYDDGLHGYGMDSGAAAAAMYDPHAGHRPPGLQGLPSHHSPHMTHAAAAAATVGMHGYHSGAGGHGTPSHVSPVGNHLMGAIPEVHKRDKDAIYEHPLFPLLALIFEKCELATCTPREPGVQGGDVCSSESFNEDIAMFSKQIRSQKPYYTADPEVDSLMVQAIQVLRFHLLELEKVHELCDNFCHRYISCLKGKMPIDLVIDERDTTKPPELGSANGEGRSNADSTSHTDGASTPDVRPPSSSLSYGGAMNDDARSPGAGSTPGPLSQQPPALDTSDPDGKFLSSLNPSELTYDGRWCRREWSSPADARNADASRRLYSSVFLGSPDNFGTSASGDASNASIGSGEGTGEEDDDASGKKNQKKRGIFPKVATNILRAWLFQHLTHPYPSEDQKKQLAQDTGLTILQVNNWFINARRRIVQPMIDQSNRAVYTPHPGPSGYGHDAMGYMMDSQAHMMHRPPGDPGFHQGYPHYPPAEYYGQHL

UniProt P40427, sequence (P40427 whole entry): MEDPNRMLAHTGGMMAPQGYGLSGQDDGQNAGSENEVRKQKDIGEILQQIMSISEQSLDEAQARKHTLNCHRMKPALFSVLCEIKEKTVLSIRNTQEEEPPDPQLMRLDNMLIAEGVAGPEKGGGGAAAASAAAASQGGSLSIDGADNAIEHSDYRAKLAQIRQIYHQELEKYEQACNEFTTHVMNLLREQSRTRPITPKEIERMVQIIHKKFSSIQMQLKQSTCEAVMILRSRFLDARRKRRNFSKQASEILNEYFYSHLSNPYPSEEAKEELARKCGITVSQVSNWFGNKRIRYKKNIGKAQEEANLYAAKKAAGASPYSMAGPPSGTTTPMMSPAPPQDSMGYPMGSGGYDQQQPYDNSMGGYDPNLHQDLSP

percent reduction of the trimeric complex against wild type Abd-B [1] [%]	percent reduction of the trimeric complex against wild type Abd-B [2] [%]	Substance
25	25	Abd-B^QR (QR>AA, for EMSA) (from UniProt P09087 1-493) (natural protein)
56	56	Abd-B^W (W>A, for EMSA) (from UniProt P09087 1-493) (natural protein)
